Laboratory results taken from patent US20110171285A1, “Design of Fibrinogen and Fibrinogen Derived Products with Reduced Bacterial Binding by Using Modified Sequences of Fibrinogen Chains” (priority 2009, published 2011).

Biological target: human platelet integrin αIIbβ3 (human), P08514
Assay: competition ELISA: integrin αIIbβ3 coated, 10 nM human Fg added with varying peptide, bound Fg detected with anti-Fg antibodies/HRP

IC50 (read off the curve): 10 µM
Binder: GQQHHLGGAKQAGDV (modifications not checked) [human 15-mer C-terminal Fg γ-chain peptide (…)]
